Measurements as given in patent US20230263891A1, “SONOGENETIC STIMULATION OF CELLS EXPRESSING TRPA1” (Salk Institute for Biological Studies, priority 2020, published 2023).
Entries after “also recorded” stand apart in the source; their conditions may differ.

Tests used:
human-TRPV1 = human-TRPV1 (Homo sapiens, UniProt Q8NER1); type: cell-based; settings: capsaicin 3 μM
HEK cells = type: cell-based, human; settings: 0.1% , positive control
Source text: FIGS. 6A-6J: Ultrasound stimulation at 2.5 MPa is safe as assessed by intracellular uptake of propidium iodide. FIG. 6A: Image showing bright field (BF) image for GCaMP6f-HEK cells, and the corresponding GFP channel (FIG. 6B) and propidium iodide channel (FIG. 6C) before ultrasound stimulation. Multiple trials with ultrasound stimulation at 2.5 MPa 100 ms had no effect on the intracellular levels of propidium iodide (FIG. 6D) n=3 stims. FIG. 6E: Image showing HEK cells used for the positive control, including GFP channel (FIG. 6F) and propidium iodide channel before treatment (FIG. 6G). […] Time course for the propidium iodide signal for an ultrasound stimulated cell highlighted in FIG. 6A, shown in FIG. 6I, and for a cell treated with […] highlighted in FIG. 6E, shown in FIG. 6J. Scale bar, 20 μm.
To facilitate rapid screening of ultrasound-triggered cellular responses, an optical imaging setup was aligned with a custom designed transducer. In particular, a single-crystal 6.91 MHz lithium niobate transducer (FIG. 1A) that lacks hysteresis and generates minimal heat as it converts electrical input into mechanical energy was designed. Such a transducer reduced ultrasound-triggered temperature changes. […]

[1] = test system: layer V motor cortical neurons; assay: c-fos expression in cortical neurons after ultrasound in vivo; parameters: species or system mouse
excitable HEK cells = assay: Patch-clamp electrophysiology of excitable HEK cells expressing TRPA1 channel polypeptides under ultrasound; type: cell-based, human
[2] = test system: Human Embryonic Kidney 293T (HEK) cells; assay: Ultrasound-evoked GCaMP6f calcium response of HEK cells transfected with candidate channels (screen and TRPA1 variants); type: cell-based; settings: for Response to ultrasound stimulation (cells activated, GCaMP6f): transfected GCaMP6f HEK cells, 6.91 MHz, screen at 100 msecs, 1.5 MPa
[3] = test system: mouse primary cortical neurons; assay: GCaMP6f calcium imaging of primary cortical neurons under ultrasound or AITC; type: cell-based
rat primary neurons = assay: Whole-cell patch clamp (voltage and current clamp) of primary neurons under ultrasound; type: cell-based
[4] = Rotarod motor learning task; settings: cortical expression; 5 days
[5] = hsTRPA1-expressing primary neurons, ultrasound

Chain of human-TRPV1 (Q8NER1 whole entry): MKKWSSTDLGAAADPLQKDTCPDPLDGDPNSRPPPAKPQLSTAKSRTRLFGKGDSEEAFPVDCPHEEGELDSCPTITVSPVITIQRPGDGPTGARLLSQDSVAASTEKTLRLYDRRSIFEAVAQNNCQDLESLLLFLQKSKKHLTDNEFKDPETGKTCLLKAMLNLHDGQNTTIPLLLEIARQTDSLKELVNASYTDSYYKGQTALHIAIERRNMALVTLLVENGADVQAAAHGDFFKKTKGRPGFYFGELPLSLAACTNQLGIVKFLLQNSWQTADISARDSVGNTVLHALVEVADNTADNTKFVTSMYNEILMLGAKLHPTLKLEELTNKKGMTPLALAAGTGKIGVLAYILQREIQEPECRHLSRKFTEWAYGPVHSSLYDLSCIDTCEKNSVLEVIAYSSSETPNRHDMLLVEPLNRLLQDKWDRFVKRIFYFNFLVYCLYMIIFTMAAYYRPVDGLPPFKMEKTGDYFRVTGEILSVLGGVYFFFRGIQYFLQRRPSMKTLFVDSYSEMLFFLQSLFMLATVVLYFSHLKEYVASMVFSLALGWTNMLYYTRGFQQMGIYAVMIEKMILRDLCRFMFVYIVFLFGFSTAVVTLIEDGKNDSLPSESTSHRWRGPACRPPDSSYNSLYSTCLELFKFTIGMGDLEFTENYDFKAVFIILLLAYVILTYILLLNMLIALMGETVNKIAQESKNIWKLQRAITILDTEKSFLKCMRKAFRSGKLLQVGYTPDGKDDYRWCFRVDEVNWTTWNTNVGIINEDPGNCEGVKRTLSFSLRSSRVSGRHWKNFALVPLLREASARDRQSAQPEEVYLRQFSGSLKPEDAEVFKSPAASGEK

In the case of `COc1cc(CNC(=O)CCCC/C=C/C(C)C)ccc1O` [capsaicin], the “Response of HEK cells expressing human TRPV1 to compound” value (human-TRPV1) is reported as “respond”.

For Triton-X, the Intracellular propidium iodide (HEK cells) was “significant increase of intracellular propidium iodide”.

B1: hsTRPA1: human TRPA1 channel protein Clone 63 (non-mutated/WT), SEQ ID NO: 4; RefSeq XP_016869435.1 (protein, listed as Homo sapiens)
chain: MKRSLRKMWRPGEKKEPQGVVYEDVPDDTEDFKESLKVVFEGSAYGLQNFNKQKKLKRCDDMDTFFLHYAAAEGQIELMEKITRDSSLEVLHEMDDYGNTPLHCAVEKNQIESVKFLLSRGANPNLRNFNMMAPLHIAVQGMNNEVMKVLLEHRTIDVNLEGENGNTAVIIACTTNNSEALQILLKKGAKPCKSNKWGCFPIHQAAFSGSKECMEIILRFGEEHGYSRQLHINFMNNGKATPLHLAVQNGDLEMIKMCLDNGAQIDPVEKGRCTAIHFAATQGATEIVKLMISSYSGSVDIVNTTDGCHETMLHRASLFDHHELADYLISVGADINKIDSEGRSPLILATASASWNIVNLLLSKGAQVDIKDNFGRNFLHLTVQQPYGLKNLRPEFMQMQQIKELVMDEDNDGCTPLHYACRQGGPGSVNNLLGFNVSIHSKSKDKKSPLHFAASYGRINTCQRLLQDISDTRLLNEGDLHGMTPLHLAAKNGHDKVVQLLLKKGALFLSDHNGWTALHHASMGGYTQTMKVILDTNLKCTDRLDEDGNTALHFAAREGHAKAVALLLSHNADIVLNKQQASFLHLALHNKRKEVVLTIIRSKRWDECLKIFSHNSPGNKCPITEMIEYLPECMKVLLDFCMLHSTEDKSCRDYYIEYNFKYLQCPLEFTKKTPTQDVIYEPLTALNAMVQNNRIELLNHPVCKEYLLMKWLAYGFRAHMMNLGSYCLGLIPMTILVVNIKPGMAFNSTGIINETSDHSEILDTTNSYLIKTCMILVFLSSIFGYCKEAGQIFQQKRNYFMDISNVLEWIIYTTGIIFVLPLFVEIPAHLQWQCGAIAVYFYWMNFLLYLQRFENCGIFIVMLEVILKTLLRSTVVFIFLLLAFGLSFYILLNLQDPFSSPLLSIIQTFSMMLGDINYRESFLEPYLRNELAHPVLSFAQLVSFTIFVPIVLMNLLIGLAVGDIAEVQKHASLKRIAMQVELHTSLEKKLPLWFLRKVDQKSTIVYPNKPRSGGMLFHIFCFLFCTGEIRQEIPNADKSLEMEILKQKYRLKDLTFLLEKQHELIKLIIQKMEIISETEDDDSHCSFQDRFKKEQMEQRNSRWNTVLRAVKAKTHHLEP
In the case of B1, the “c-fos expression in the auditory cortex after ultrasound” value ([1]; hsTRPA1-expressing mice) is reported as “not detected”, the “Number of c-fos positive cells in cortical motor neurons after ultrasound” value ([1]; hsTRPA1-expressing transgenic mice versus GFP) is reported as “significantly increased the number of c-fos positive cells” and the “Electrical properties (I-V curve) versus dTom controls” value (excitable HEK cells) is reported as “no significant disruptions in their electrical properties”. The “Basal rate of activity before ultrasound versus dTom controls” value (excitable HEK cells; cell-attached) was “higher basal rates of activity”, the “Inward currents in response to ultrasound versus dTom controls” value (excitable HEK cells; cell-attached) was “significantly larger and more numerous” and the “Electrophysiological responses to ultrasound versus GFP control” value (excitable HEK cells; patch clamp assay) was “Significant electrophysiological responses to ultrasound”. For the same molecule, the “Responsiveness to ultrasound stimulation among TRPA channels from different species (% of cells showing a response)” value ([2]; HEK cells, 100 ms ultrasound pulse at 3 MPa 6.91 MHz) was “the most responsive to ultrasound stimulation”, the “Response to ultrasound stimulation (cells activated, GCaMP6f)” value [2] was “robust responses; also recorded: selectively activated by ultrasound stimulation in a pressure- and duration-dependent manner” and the “Response to ultrasound stimulation (cells activated, GCaMP6f)” value ([2]; listed as human homolog) was “the best candidate”. The “Ultrasound-triggered intracellular calcium in expressing neurons versus CRE control” value ([3]; E18 mouse primary cortical neurons, AAV infected, 100 ms, 2.5 MPa) was “significant increase in intracellular calcium”, the Response duration [3, 5] was 2 to 30 s and the “Response latency after stimulus onset (majority of neurons)” value [3, 5] was 500 to 900 ms. The “Repeated ultrasound stimulation: cell health and calcium flux” value ([3]; repetitive 100 ms, 2.5 MPa ultrasound stimulation) was “without apparent deleterious effects on cell health or a substantial decrement in calcium flux”, the “Ultrasound-evoked action potentials in assayed neurons” value (rat primary neurons; current clamp) was “all assayed hsTRPA1-expressing neurons showed ultrasound-evoked action potentials” and the “Lowest ultrasound pressure triggering action potentials” value (rat primary neurons; current clamp, 6.91 MHz) was 0.2 MPa. The “Current responses to ultrasound in voltage clamp” value (rat primary neurons; whole-cell, within a few milliseconds of ultrasound stimulation, 0.25 MPa range) was greater than 400 pA and the “Ability to learn the rotarod task versus GFP-expressing animals” value [4] was “comparable ability to learn the rotarod task”.
